experiment: soluble on expression in E. coli; label from the status in PepcDB or PDB records

Sequence | soluble on expression in E. coli
MGIKQYSQEELKEMALVEIAHELFEEHKKPVPFQELLNEIASLLGVKKEELGDRIAQFYTDLNIDGRFLALSDQTWGLRSWYPYDQLDEETQPTVKAKKKKAKKAVEEDLDLDEFEEIDEDDLDLDEVEEELDLEADDFDEEDLDEDDDDLEIEEDIIDEDDEDYDDEEEEIK | not soluble
MSLELIEENDFDAIYIGNSKVMIKDYRGFVATLRILREKFPNAVLITDLEPFFYPLAVYLGVDAFDVRSLKIYSYEGLGFTPFSPVIWDRPNDPIEFAREMIKIIKIAIQEGKLRYLVENFLPTVMNVGILRIADKEHGDYLEKYTPVHDKTVVFISEHSISRPEVFRWRKRIEERFEPPKGIDLLLIFPCSAKKPYSRSRSHMMYRKVMKEALGEKVHRVHELVVTSPYGVVPREWEWLAKYDIVVTGHWSESEVRFAGELLAQTIEKYPDIPIVAHVEGGYREAVKYAMELVNRDVIFTAVGSSTISKESLDKLKKTLKEFDLRDAEKDYRRYRFYENVRKVFDYYFGLGAGEAVLPENAQIVGSKMLRLIVNNSQTGTFQEGVISVTPFGMQRIYDKLNSYWVEVDFDIRGDVFAAGVERADEGIRPNDIVGIVRDGRVVAVGRAVLSGEEMVRAKKGIAVRVRKRVKNKEGHHHHHH | not soluble
MSLTLTEVAEFVGVSAMTVSRALRMPEKVNPELRDRIDAAVSQLGYVPNLQARNLASVHSDLILAVVPTFSSPGFLPVSEALQKVLTERGYTMMFMESGHDGQSEQKTFEKMLAYNPAAIIQFNIDTIESCTQLLANVDVPILEIGALNTHPVGMCIGVDYGKAVKQIVTHLADASLKNIALLCTPANNTMFRQLLSGWNTAMLALNRSPHRVVTTHLPSTIATGVNIFKDMMITWGDLDALICTSDEMACGCMMACHSAGIKVPNTVAIASLGGGVLSTVCSPALTTVEFPWHDIGVKAGKALLELLNDKPGEKFIEIPSVLKVRASTAEGHHHHHH | soluble
MGARCDVAVIGAGPAGCAAAIALKRLGVASVLLLEAGDGARPRFGESLPPDIRLILAQLGLAEAFAALGFDPCVGAASSWGEDGLGYNDFLFNPHGLGWHIDRARFDAFLRDAAVAAGAELRFDTVFDSVVMTGDAARLRVRGERGDETITAGFVLDATGRAARVARALGAERIESDRLVCAAALIRIDPDGLLGQRSLLEAVDYGWWYAARLSPDEAIVVVSTDADLLRARRLHRSDAWYGHLAATRHVAAALGTAAPPSQLMVRQARSSRLSRAADQRWRAIGDAASVYDPIMAQGVTKAMIEGLAAARDIVRHMPDAEEGLDARFADYLSLRDYFYGQEGRWPDAPFWTRRRRPQPAVRTLWEVSALEHHHHHH | not soluble
MHGKDPFSDFREFINTMESRVQELGKAYGVEHLAGPQGFAVRYLFENQDKEIFIKDIEKKLSISKSVASNLVKRMEKNGFVELVTSDKDKRYKYVHLTDLGKKKAQDVGHFREAIHGQLLDGISKEDAETAFRVFHQIRKNLEKNKE | not soluble
MSLSGVVERITFVNEENGFSVVKIKSKGFSDLVTAVGNMASVNVGAVVSLRGEWKYDSKFGRQFNVYHYEESIPATVAGIEKYLGSGLIKGIGPVNAKRIVKVFKEDTIRVIEEEPDRLIEVPGIGKKRVEMIKEAWQNQKEIKNVMLFLQSHGVSTAFAVKIFKTYGSDSIKIVKENPYRLADDIWGIGFKTADKIAQNMGYDKESYARIRSGIMYALNEFANDGHCFAKKDELVNKASELLGVELEKVETAIQHMLEEKSVIMEEDDAVYLPPFYYSEVGVARRIREIIETKSMYSFYNFDGIIEDLQRECNIQYDEVQIEAIRKAVVSKFMVLTGGPGTGKTTTTLAIIKVFQKLGATVLLAAPTGRAAKRMSEATGMEAKTIHRLLEYSPQDGYKKNDDNPLECDVLIIDETSMIDIILMYNLLKAVSNNTVVILVGDVDQLASVGAGNVLKDIIESGMVTVVRLMRIFRQAMGSAIVTNAHKINHGEYPVLKGGKNSNFFFIEEEDPEKIVELVRELCSKRLPGYYKINPLNDIQVLCPMQKGVVGAQNLNTVLQETLNPCDISIKYGGTIYKLNDRVMQIKNNYDKNVFNGDMGIITDIDQEEKTVRIKFDDAEVEYDVTELDEVTLAYAVTVHKSQGSEYNFVVAPFTMQHYMMLQRNLLYTCVTRAKKVLVLIGSKKALGCCIRNSRSMDRNTKLAQRLKADTEGHHHHHH | soluble
MKYMIPDEEFIRREGVPITKEEIRAVSIGKLNLNKDDVVVDVGCGSGGMTVEIAKRCKFVYAIDYLDGAIEVTKQNLAKFNIKNCQIIKGRAEDVLDKLEFNKAFIGGTKNIEKIIEILDKKKINHIVANTIVLENAAKIINEFESRGYNVDAVNVFISYAKKIPSGHMFLAKNPITIIKAVR | soluble

Source: the DeepSol protein solubility set
